# From paper PMC3585378 (PLoS ONE, 2013)
# B1: His6-OspG (natural protein)
# chain: MKITSTIIQTPFPFENNNSHAGIVTEPILGKLIGQGSTAEIFEDVNDSSALYKKYDLIGNQYNEILEMAWQESELFNAFYGDEASVVIQYGGDVYLRMLRVPGTPLSDIDTADIPDNIESLYLQLICKLNELSIIHYDLNTGNMLYDKESESLFPIDFRNIYAEYYAATKKDKEIIDRRLQMRTNDFYSLLNRKYL
# notes: source: E. coli BL21 (DE3), purified (Ni-NTA)
# B2: GST-tagged OspG protein (GST-OspG) (natural protein)
# chain: B1 chain
# notes: source: E. coli BL21 (DE3), purified (glutathione-Sepharose)
# How the values were obtained:
# GST-ubiquitin = molecular target: T1, GST-ubiquitin (UniProt P0CG48 1-76); assay: pull-down; settings: both partners purified
# T1 construct: also called GST-tagged ubiquitin
# His6-ubiquitin = His6-ubiquitin (UniProt P0CG48 1-76); assay: pull-down; settings: both partners purified
Binder,binding result (GST-ubiquitin),binding result (His6-ubiquitin)
B1,binds,–
B2,–,binds
